# Measured values taken from US20230414780A1 (VECT HORUS, published 2023).
# Positions count from the first letter of the chain named.
# B1: 13C3-HC-C5h9 (antibody)
# heavy: QVQLQQSGPELVRPGVSVKISCKGSGYTFTDYAMHWVKQSHAKSLEWIGVISTKYGKTNYNQKFKGKATMTVDKSSSTAYMELARLTSEDSAIYYCARGDDGYSWGQGTSVTVSSAKTTPPSVYPLAPGSAAQTNSMVTLGCLVKGYFPEPVTVTWNSGSLSSGVHTFPAVLQSDLYTLSSSVTVPSSTWPSETVTCNVAHPASSTKVDKKIVPRDCGCKPCICTVPEVSSVFIFPPKPKDVLTITLTPKVTCVVVDISKDDPEVQFSWFVDDVEVHTAQTQPREEQFNSTFRSVSELPIMHQDWLNGKEFKCRVNSAAFPAPIEKTISKTKGRPKAPQVYTIPPPKEQMAKDKVSLTCMITDFFPEDITVEWQWNGQPAENYKNTQPIMDTDGSYFVYSKLNVQKSNWEAGNTFTCSVLHEGLHNHHTEKSLSHSPGGGGGMAEVQLVESGGGVVQPGGSLRLSCAASGTDFSINFIRWYRQAPGKGLEFVAGFTATGNTNYADSVKGRFTISRDNAKNTLYLQMNSLRPEDTAVYYCYMLDKWGQGTQVTVSSAAA
# light: DVVMTQTPLSLPVSLGDQASISCRSGQSLVHSNGNTYLHWYLQKPGQSPKLLIYTVSNRFSGVPDRFSGSGSGSDFTLKISRVEAEDLGVYFCSQNTFVPWTFGGGTKLEIKRADAAPTVSIFPPSSEQLTSGGASVVCFLNNFYPKDINVKWKIDGSERQNGVLNSWTDQDSKDSTYSMSSTLTLTKDEYERHNSYTCEATHKTSTSPIVKSFNRNEC
# B2: 13C3-HC-C5h20 (antibody)
# heavy: B1 heavy with T521A, L522V
# light: B1 light
# notes: homodimeric fusion, bivalent for TfR
# B3: 13C3-HC-C5h24 (antibody)
# heavy: B1 heavy with V507M
# light: B1 light
# B4: C5^h18 (VHH)
# VHH: EVQLVESGGGVVQPGGSLKLSCVASGTDFSINFIRWYRQAPGKGLEFVAGFTATGNTNYADSVKGRFTISRDNAKNTLYLQMNSLRPEDTAVYYCYMLDKWGQGTQVTVSS
# B5: C5-ΔHis-siSOD1m (VHH)
# VHH: B4 VHH with G44Q, L45R, V63M, A74T, T77A, L78V, M82I, N83D, R86K
# modifications: conjugated to the siSOD1m siRNA duplex through a linker; site and tag not given for this conjugate ; Conjugated at a C-terminal tag (not given) through a linker to the chemically modified siSOD1m duplex (SEQ ID NOs 465/466).
# notes: Member of the group m173; also called VHH-deltaHis-siSOD1m wherein VHH is C5; not shown: The C-terminal conjugation tag of the 'ΔHis' form, which the text never defines
# B6: C5^h19 (VHH)
# VHH: B4 VHH with K19R, V23A, G44Q, L45R
# B7: C5V1-siSOD1m (VHH)
# VHH: B4 VHH with T27A, G44Q, L45R, V63M, A74T, T77A, L78V, M82I, N83D, R86K
# modifications: conjugated to the siSOD1m siRNA duplex through a linker; site and tag not given for this conjugate ; VHH conjugated through a C-terminal tag and a stable click linker to the 3' end of the sense strand of the siSOD1m siRNA duplex (SEQ ID NO 465/466). The letters cannot carry this.
# notes: Member of the group m173; not shown: C-terminal tag/linker that carries the siRNA
# B8: C5V7-siSOD1m (VHH)
# VHH: B4 VHH with G44Q, L45R, V63M, A74T, T77A, L78V, M82I, N83D, R86K, L98A
# modifications: conjugated to the siSOD1m siRNA duplex through a linker; site and tag not given for this conjugate ; VHH conjugated through a C-terminal tag and a stable click linker to the 3' end of the sense strand of the siSOD1m siRNA duplex (SEQ ID NO 465/466). The letters cannot carry this.
# notes: as for B7
# B9: VHH A13 (C5^V13) (VHH)
# VHH: B4 VHH with G44Q, L45R, T52S, V63M, A74T, T77A, L78V, M82I, N83D, R86K
# B10: C5V13-siSOD1m (VHH)
# VHH: B4 VHH with G44Q, L45R, T52S, V63M, A74T, T77A, L78V, M82I, N83D, R86K
# modifications: conjugated to the siSOD1m siRNA duplex through a linker; site and tag not given for this conjugate ; VHH conjugated through a C-terminal tag and a stable click linker to the 3' end of the sense strand of the siSOD1m siRNA duplex (SEQ ID NO 465/466). The letters cannot carry this.
# notes: as for B7
# B11: VHH A1 (C5^V1) (VHH)
# VHH: B4 VHH with T27A, G44Q, L45R, V63M, A74T, T77A, L78V, M82I, N83D, R86K
# B12: C5h18-siSOD1m (VHH)
# VHH: B4 VHH
# modifications: conjugated to the siSOD1m siRNA duplex through a linker; site and tag not given for this conjugate ; VHH conjugated through a C-terminal tag and a stable click linker to the 3' end of the sense strand of the siSOD1m siRNA duplex (SEQ ID NO 465/466). The letters cannot carry this.
# notes: as for B7
# B13: C5h19-siSOD1m (VHH)
# VHH: B4 VHH with K19R, V23A, G44Q, L45R
# modifications: conjugated to the siSOD1m siRNA duplex through a linker; site and tag not given for this conjugate ; VHH conjugated through a C-terminal tag and a stable click linker to the 3' end of the sense strand of the siSOD1m siRNA duplex (SEQ ID NO 465/466). The letters cannot carry this.
# notes: as for B7
# B14: B8^h1 (VHH)
# VHH: EVQLVESGGGVVQPGGSLRLSCAASGEIFSINFMRWYRQAPGKGLEWVAGFTRDGSTNYPDSVKGRFTISRDNAKNTVYLQMNSLRPEDTAVYYCYMLDTWGQGTQVTVSS
# B15: VHH B-siGFPst1 bioconjugate (VHH)
# VHH: B14 VHH with G44Q, L45R, V63A, M82I, N83D, R86K
# modifications: siGFPst1 siRNA linked to the Gln of the C-terminal Q-tag
# notes: not shown: C-terminal tag with His tag and Q-tag
# B16: B8-MALAT1-ASO (VHH, not shown: small tags and cut ends)
# VHH: B14 VHH with G44Q, L45R, V63A, M82I, N83D, R86K
# modifications: MALAT1 gapmer antisense oligonucleotide linked to the VHH
# notes: also called VHH-MALAT1-ASO wherein VHH is B8
# Assays:
# [1] = molecular target: T1, mouse transferrin receptor (mTfR) fused to EGFP, on CHO cells (mouse, UniProt Q62351 1-763); assay: cell-based flow cytometry assay on mTfR-expressing cells (as in Example XI)
# T1 construct: whole, on cells; also called mouse TfR; CHO-mTfR-EGFP; not shown: EGFP
# T1 sequence (Q62351 whole entry, the tested form may be a part): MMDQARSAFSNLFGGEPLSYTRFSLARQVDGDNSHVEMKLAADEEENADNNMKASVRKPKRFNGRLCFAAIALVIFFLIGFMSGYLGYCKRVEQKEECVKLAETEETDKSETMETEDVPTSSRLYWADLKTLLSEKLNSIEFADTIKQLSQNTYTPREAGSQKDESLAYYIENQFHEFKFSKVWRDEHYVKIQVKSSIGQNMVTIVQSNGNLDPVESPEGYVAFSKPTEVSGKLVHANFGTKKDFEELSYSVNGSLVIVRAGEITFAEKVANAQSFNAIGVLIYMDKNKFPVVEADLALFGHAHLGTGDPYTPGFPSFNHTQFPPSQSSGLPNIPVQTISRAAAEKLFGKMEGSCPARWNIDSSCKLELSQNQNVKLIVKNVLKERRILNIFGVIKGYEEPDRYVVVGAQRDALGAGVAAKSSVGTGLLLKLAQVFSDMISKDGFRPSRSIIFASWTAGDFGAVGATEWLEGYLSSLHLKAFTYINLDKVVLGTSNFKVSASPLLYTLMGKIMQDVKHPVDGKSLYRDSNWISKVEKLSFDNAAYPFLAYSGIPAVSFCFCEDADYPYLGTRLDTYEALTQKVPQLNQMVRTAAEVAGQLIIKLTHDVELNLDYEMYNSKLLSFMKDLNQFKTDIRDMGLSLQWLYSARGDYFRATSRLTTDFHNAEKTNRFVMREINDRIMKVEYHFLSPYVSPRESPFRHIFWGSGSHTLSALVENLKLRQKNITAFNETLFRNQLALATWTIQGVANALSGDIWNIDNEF
# [2] = molecular target: T1, mouse transferrin receptor (mTfR) fused …; assay: cell-based flow cytometry assay on mTfR-expressing cells (as in Example XI); Kd/app
# [3] = molecular target: T2, murine TfR expressed by murine neuroblastoma Neuro-2a cells (mouse, UniProt Q62351 1-763); assay: competition with the fluorescent reference VHH on Neuro-2a cells as in FIG. 25; Ki/app on mTfR, free VHH
# T2 construct: whole, on cells; also called mTfR (N2a cells)
# T2 sequence (Q62351 whole entry): as the sequence (Q62351 whole entry, the tested form may be a part) above
# Protocol: (§1) The binding of VHH-Oligo and VHH-hFc-Oligo conjugates to mTfR was evaluated using a competition assay on living cells expressing the receptor of interest, namely murine neuroblastoma Neuro-2a cells (N2a). N2a cells were grown in Dulbecco's Modified Eagle Medium (DMEM) GlutaMAX supplemented with 10% v/v FBS in 5% CO₂ at 37° C. Cells were seeded two days before experiments in 96-well plates at a density of 50.000 cells/well. […] Resuspended cells were transferred in a 96-deepwell plate (V-bottom) containing 1% fetal bovine serum (FBS)/0.02% sodium azide in phosphate-buffered saline (PBS) and then centrifuged for 5 min at 2000 rpm at 4° C. After removing the supernatant, 5 mM EDTA in D-PBS and 4% paraformaldehyde (PFA) (v/v 1:1) were added into wells to fix cells for 15 min at room temperature. PFA was removed by centrifugation (5 min, 3000 rpm, 4° C.) and cells were resuspended with 5 mM EDTA in D-PBS. Then the cellular A680-associated fluorescence signal was quantified using an Attune™ NxT flow cytometer (Thermo Fisher Scientific) equipped with Attune™ NxT v3.1.2. Experimental data (experimental triplicates) were fitted with GraphPad Prism® software using a nonlinear fit to determine the apparent Ki inhibition constants.
# [4] = molecular target: T3, rhesus monkey transferrin receptor (rhTfR) fused to EGFP, on CHO cells (rhesus monkey); assay: apparent Kd, flow cytometry, CHO cells
# T3 construct: whole, on cells; also called rhesus monkey TfR
# In short: (§2)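 CHO cells expressing TfR-EGFP fusions, blocked in PBS/BSA 2%, then incubated with increasing VHH concentrations for 1 hr at 4° C. Bound VHH detected via anti-6His antibody and Alexa647 secondary, cells PFA-fixed, read by flow cytometry. Apparent Kd from nonlinear fit.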
# [5] = molecular target: T4, human transferrin receptor (hTfR) fused to EGFP, on CHO cells (human, UniProt P02786 1-760); assay: apparent Kd, flow cytometry, CHO cells
# T4 construct: whole, on cells; also called human TfR; CHO-hTfR-EGFP; not shown: EGFP from pEGFP-C1 vector, fused to the N-terminal (intracellular) end of hTfR
# T4 sequence (P02786 whole entry, the tested form may be a part): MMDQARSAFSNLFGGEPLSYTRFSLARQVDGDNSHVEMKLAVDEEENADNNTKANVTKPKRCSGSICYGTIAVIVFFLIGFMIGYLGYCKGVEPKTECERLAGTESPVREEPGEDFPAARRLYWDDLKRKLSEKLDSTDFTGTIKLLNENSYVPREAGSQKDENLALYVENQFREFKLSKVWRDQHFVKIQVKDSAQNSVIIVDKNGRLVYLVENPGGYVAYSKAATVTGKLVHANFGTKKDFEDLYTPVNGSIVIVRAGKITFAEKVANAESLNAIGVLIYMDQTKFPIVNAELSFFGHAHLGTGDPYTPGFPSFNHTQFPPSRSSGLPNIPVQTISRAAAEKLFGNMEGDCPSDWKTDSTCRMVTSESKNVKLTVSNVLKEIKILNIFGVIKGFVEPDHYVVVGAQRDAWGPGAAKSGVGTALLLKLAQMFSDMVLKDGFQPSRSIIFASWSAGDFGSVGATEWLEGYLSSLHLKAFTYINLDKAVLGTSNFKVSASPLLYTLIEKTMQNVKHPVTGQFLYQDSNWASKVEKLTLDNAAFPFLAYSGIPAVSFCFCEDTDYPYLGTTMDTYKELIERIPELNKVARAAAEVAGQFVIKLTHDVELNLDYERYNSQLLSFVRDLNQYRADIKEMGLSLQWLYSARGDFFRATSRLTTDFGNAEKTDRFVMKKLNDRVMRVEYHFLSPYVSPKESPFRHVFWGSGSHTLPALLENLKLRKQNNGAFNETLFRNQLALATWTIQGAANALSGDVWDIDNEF
# In short: as §2
# [6] = molecular target: T1, mouse transferrin receptor (mTfR) fused …; assay: apparent Kd, flow cytometry, CHO cells
# In short: as §2
# [7] = molecular target: T5, human TfR ectodomain fused to a mouse IgG1 Fc fragment (human, UniProt P02786 89-760); assay: SPR, kinetic
# T5 construct: extracellular domain; ectodomain fused to the N-terminal end of the Fc, made in-house; not shown: mouse IgG1 Fc fragment
# T5 sequence (P02786 89-760): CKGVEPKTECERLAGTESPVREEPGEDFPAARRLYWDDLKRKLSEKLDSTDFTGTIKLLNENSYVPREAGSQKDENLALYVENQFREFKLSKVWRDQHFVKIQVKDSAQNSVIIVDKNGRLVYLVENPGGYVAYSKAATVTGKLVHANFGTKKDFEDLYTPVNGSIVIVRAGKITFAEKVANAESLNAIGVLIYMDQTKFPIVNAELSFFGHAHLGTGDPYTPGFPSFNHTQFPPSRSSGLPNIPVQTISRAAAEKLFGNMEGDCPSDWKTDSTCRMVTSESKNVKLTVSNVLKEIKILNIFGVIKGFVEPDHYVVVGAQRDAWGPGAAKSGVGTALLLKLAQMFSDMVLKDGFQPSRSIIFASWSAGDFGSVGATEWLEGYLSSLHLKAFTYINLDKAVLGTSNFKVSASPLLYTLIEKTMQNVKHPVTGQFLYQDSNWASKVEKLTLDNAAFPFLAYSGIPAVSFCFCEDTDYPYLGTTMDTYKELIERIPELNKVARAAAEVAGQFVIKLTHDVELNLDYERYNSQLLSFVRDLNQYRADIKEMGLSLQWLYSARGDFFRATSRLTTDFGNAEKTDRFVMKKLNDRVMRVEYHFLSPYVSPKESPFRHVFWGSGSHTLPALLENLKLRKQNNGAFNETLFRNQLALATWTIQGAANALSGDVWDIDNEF
# In short: (§3)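 TfR–mouse Fc fusions, produced in-house, captured on HC 1500M or CM5 chips either directly or via immobilized anti-mouse IgG. VHHs injected in single-cycle or multiple-cycle kinetic mode on Biacore T200.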
# [8] = molecular target: T6, mouse TfR ectodomain fused to a mouse IgG1 Fc fragment (mouse, UniProt Q62351 89-763); assay: SPR, kinetic
# T6 construct: extracellular domain; not shown: mouse IgG1 Fc fragment
# T6 sequence (Q62351 89-763): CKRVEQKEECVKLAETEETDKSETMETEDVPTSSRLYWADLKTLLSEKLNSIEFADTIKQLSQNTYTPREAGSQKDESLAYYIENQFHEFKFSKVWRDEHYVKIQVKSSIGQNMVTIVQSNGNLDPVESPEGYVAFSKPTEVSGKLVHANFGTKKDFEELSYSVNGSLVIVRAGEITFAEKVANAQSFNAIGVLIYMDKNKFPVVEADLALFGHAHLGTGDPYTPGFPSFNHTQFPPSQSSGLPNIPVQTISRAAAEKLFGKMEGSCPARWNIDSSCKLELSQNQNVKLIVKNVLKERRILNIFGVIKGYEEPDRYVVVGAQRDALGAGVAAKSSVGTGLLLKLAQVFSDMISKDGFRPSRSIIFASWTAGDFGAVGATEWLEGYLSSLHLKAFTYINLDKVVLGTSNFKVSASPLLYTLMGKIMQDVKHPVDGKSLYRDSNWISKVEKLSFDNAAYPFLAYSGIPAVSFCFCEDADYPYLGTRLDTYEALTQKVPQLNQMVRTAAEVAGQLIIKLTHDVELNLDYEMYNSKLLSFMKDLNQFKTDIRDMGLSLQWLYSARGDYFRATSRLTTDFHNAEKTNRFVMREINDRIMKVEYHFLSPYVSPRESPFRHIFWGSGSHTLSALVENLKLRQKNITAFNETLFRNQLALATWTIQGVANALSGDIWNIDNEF
# In short: as §3
# [9] = molecular target: T5, human TfR ectodomain fused to a mouse …; assay: SPR, at equilibrium
# In short: as §3
# [10] = molecular target: T6, mouse TfR ectodomain fused to a mouse …; assay: SPR, at equilibrium
# In short: as §3
# [11] = molecular target: T2, murine TfR expressed by murine …; assay: competition with the fluorescent reference VHH on Neuro-2a cells as in FIG. 25; Ki/app on mTfR
# Protocol: as §1
# [12] = molecular target: T4, human transferrin receptor (hTfR) fused …; assay: flow cytometry on CHO-hTfR-EGFP cells, 1 hr at 4 C, anti-6His + Alexa647 anti-mouse; ratio to background fluorescence
# Protocol: FIGS. 15A-15H: In vitro gene silencing activity of VHH-siGFPst1 bioconjugates. […] CHO-hTfR-EGFP cells were incubated 1 hr at 4° C. with various concentrations of the indicated compounds. Detection of VHHs was performed using a primary mouse anti-6His (1/1000) and an Alexa647-conjugated anti-mouse secondary antibody (1/400). Measurements of cell-surface signal associated to VHH were performed using flow cytometry. The results are expressed as the ratio of Alexa647-associated fluorescence intensity of test compounds to that of background fluorescence. […] The total fluorescence associated to the EGFP protein was then quantified using flow cytometry and rationalized to that of untreated (control) cells (set at 100%) *** p≤0.001. […] The total fluorescence associated with the EGFP protein was then quantified using flow cytometry and rationalized to that of untreated (control) cells (set at 100%). […] CHO-hTfR-EGFP cells were incubated with the indicated compounds at 1 μM during 120 hrs at 37° C. Data were processed and analyzed as described in (B). *** p≤0.001 vs. untreated cells. […] The total fluorescence associated with the EGFP protein was then quantified using flow cytometry and rationalized to that of untreated (control) cells (set at 100%).
# [13] = molecular target: T2, murine TfR expressed by murine …; assay: competition with C5-Alexa680 (100 nM) on living Neuro-2a cells, 3 hrs at 37 C, flow cytometry; Ki/app, mean ± SD
# Protocol: as §1
Binder,Ki [3] [nM],Kd [4] [nM],Kd [5] [nM],Kd [6] [nM],Kd [7] [nM],koff [7] [s⁻¹],kon [7] [M⁻¹ s⁻¹],Ki [11] [nM],other results
B1,–,–,–,–,–,–,–,–,Bmax [1]: 531 RFI; Kd [2]: 15.8 nM
B2,–,–,–,–,–,–,–,–,Bmax [1]: 1470 RFI; Kd [2]: 22.3 nM
B3,–,–,–,–,–,–,–,–,Bmax [1]: 781 RFI; Kd [2]: 20.2 nM
B4,1480,957,11,834,30.9,0.013,462000,–,Kd [8]: 336 nM; koff [8]: 0.235 s⁻¹; kon [8]: 816000 M⁻¹ s⁻¹; Kd [9]: 27.3 nM; Kd [10]: 300 nM
B5,–,–,–,–,–,–,–,137,–
B6,7600,521,5.4,1030,16.3,0.00904,624000,–,Kd [8]: 643 nM; koff [8]: 0.00825 s⁻¹; kon [8]: 12800 M⁻¹ s⁻¹; Kd [9]: 13.2 nM; Kd [10]: 2750 nM
B7,–,–,–,–,–,–,–,224,–
B8,–,–,–,–,–,–,–,10100,–
B9,1320,28,3.5,187,0.357,0.000392,1.14e+06,–,Kd [8]: 78.9 nM; koff [8]: 0.0182 s⁻¹; kon [8]: 231000 M⁻¹ s⁻¹; Kd [10]: 113 nM
B10,–,–,–,–,–,–,–,512,–
B11,834,13,3.2,259,0.876,0.000487,555000,–,Kd [8]: 244 nM; koff [8]: 0.12 s⁻¹; kon [8]: 546000 M⁻¹ s⁻¹; Kd [10]: 228 nM
B12,–,–,–,–,–,–,–,1070,–
B13,–,–,–,–,–,–,–,2630,–
B14,43,1.9,4.1,2.8,0.212,9.49e-05,444000,–,–
B15,–,–,–,–,–,–,–,–,EC50 (read off the curve) [12]: ~3 nM
B16,–,–,–,–,–,–,–,–,Ki [13]: 60.9 nM
